{"source": "patent US8889408B2", "about": "“Factor taking part in transcription control” (Sony Corporation, priority 2002, dated 2014)", "molecules": {"B1": {"name": "HDART: HDAC associated repressor TPR protein, 855 amino acids, SEQ ID NO: 2; transcription repressing factor, used as fusions or expressed from vector (protein, listed as Homo sapiens)", "chain": "MVVMARLSRPERPDLVFEEEDLPYEEEIMRNQFSVKCWLRYIEFKQGAPKPRLNQLYERALKLLPCSYKLWYRYLKARRAQVKHRCVTDPAYEDVNNCHERAFVFMHKMPRLWLDYCQFLMDQGRVTHTRRTFDRALRALPITQHSRIWPLYLRFLRSHPLPETAVRGYRRFLKLSPESAEEYIEYLKSSDRLDEAAQRLATVVNDERFVSKAGKSNYQLWHELCDLISQNPDKVQSLNVDAIIRGGLTRFTDQLGKLWCSLADYYIRSGHFEKARDVYEEAIRTVMTVRDFTQVFDSYAQFEESMIAAKMETASELGREEEDDVDLELRLARFEQLISRRPLLLNSVLLRQNPHHVHEWHKRVALHQGRPREIINTYTEAVQTVDPFKATGKPHTLWVAFAKFYEDNGQLDDARVILEKATKVNFKQVDDLASVWCQCGELELRHENYDEALRLLRKATALPARRAEYFDGSEPVQNRVYKSLKVWSMLADLEESLGTFQSTKAVYDRILDLRIATPQIVINYAMFLEEHKYFEESFKAYERGISLFKWPNVSDIWSTYLTKFIARYGGRKLERARDLFEQALDGCPPKYAKTLYLLYAQLEEEWGLARHAMAVYERATRAVEPAQQYDMFNIYIKRAAEIYGVTHTRGIYQKAIEVLSDEHAREMCLRFADMECKLGEIDRARAIYSFCSQICDPRTTGAFWQTWKDFEVRHGNEDTIKEMLRIRRSVQATYNTQVNFMASQMLKVSGSATGTVSDLAPGQSGMDDMKLLEQRAEQLAAEAERDQPLRAQSKILFVRSDASREELAELAQQVNPEEIQLGEDEDEDEMDLEPNEVRLEQQSVPAAVFGSLKED"}}, "key": {"[1]": {"system": "Gal4 reporter plasmid (pGal4-Luciferase)", "assay": "Gal4 reporter (luciferase) promoter repression in NIH3T3 cells", "assay_type": "cell-based", "description": "Assuming that HDART takes part in more direct inhibition, it is expected that it has an autonomous repression function. To confirm the above expectation, in order that HDART can bind to DNA the full-length HDART cDNA was fused to Gal4 DNA binding region (GAL4DBD: a region having only a binding region with GAL4DNA and lacking a transcription control region) to analyze whether the transcription from the GAL4A promoter could be regulated within NIH3T3 cells.\nMore particularly, a Gal4 DBD-HDART plasmid capable of expressing a full-length HDART and Gal4 DBD fused protein was transfected in different amounts (0, 0.1, 0.3, and 0.5 μg) into NIH3T3 cells previously prepared to contain Gal4 reporter plasmid (pGal4-Luciferase). It should be noted that in order to make a uniform total amount of DNA used for the transfection, the amount of an expression vector was equalized to 0.5 μg by adding the appropriate amount of a vacant vector of Gal4 DBD in each transfection. 24 hours after the transfection, the expression activity (Luciferase activity) of reporter genes from the promoter was analyzed. The luciferase activity for each sample is indicated as a corrected value based on the luciferase activity obtained by introduction of a vacant vector alone as a reference (100%) (FIG. 8). It will be noted that the results of the analysis were indicated as an average of the results of three experiments, and a standard deviation is indicated as an error bar (FIG. 8A). Similar analyses were made using a different type of cell, U-205 cell, with Gal4 DBD-HDART (in an amount of 0 or 0.5 μg) (FIG. 8B)."}, "HDAC3": {"molecular_target": "HDAC3 (Homo sapiens, UniProt O15379)", "sequence (O15379 whole entry, species assumed)": "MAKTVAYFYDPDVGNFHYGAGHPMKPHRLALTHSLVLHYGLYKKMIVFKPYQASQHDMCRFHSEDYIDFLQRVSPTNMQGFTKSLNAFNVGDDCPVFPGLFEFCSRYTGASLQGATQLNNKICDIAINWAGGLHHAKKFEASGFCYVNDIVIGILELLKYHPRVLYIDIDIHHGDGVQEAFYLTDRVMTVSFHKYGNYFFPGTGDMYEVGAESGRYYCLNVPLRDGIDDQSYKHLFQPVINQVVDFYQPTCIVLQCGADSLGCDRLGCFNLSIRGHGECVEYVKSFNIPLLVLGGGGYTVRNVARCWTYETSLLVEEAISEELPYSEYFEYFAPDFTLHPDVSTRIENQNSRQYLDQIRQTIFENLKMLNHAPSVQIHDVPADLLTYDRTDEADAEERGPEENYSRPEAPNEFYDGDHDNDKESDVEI", "assay": "Immunoprecipitation of GFP-HDART with Flag-HDAC in 293 cells", "assay_type": "binding", "design": "expressed in transfected cells; host or cells: 293 cells", "conditions": "co-transfected 293 cells; anti-FLAG immunoprecipitation", "procedure": "Flag-HDACs expression vectors capable of expressing different types of HDAC (1, 3, 4 or 6) and a GFP-HDART expression vector were, respectively, co-transfected with 293 cells in the same manner as in Example 2, and cell extracts were prepared 24 hours after the transfection. The respective cell extracts were incubated with an anti-Flag antibody, followed by immunoprecipitation. The resulting immunoprecipitate was isolated with SDS-PAGE and an isolated pattern was transferred to a membrane, followed by immunoblotting with use of an anti-Flag antibody or […]. For reference, in order to confirm the expression of GFP-HDART protein in the respective cells, individual samples prior to the immunoprecipitation were similarly developed with SDS-PAGE to conduct immunoblotting with use of an anti-GFP antibody. […] The kinds of HDAC's from the left side of the figure are as follows: lane 1, HDAC1; lane 3, HDAC3; lane 4, HDAC4; and lane 5, HDAC6. It will be noted that lane 2 is for the sample in which GFP-HDART alone was expressed."}, "Skip": {"molecular_target": "T1, Skip (Homo sapiens, UniProt Q13573)", "T1 sequence (Q13573 1-536)": "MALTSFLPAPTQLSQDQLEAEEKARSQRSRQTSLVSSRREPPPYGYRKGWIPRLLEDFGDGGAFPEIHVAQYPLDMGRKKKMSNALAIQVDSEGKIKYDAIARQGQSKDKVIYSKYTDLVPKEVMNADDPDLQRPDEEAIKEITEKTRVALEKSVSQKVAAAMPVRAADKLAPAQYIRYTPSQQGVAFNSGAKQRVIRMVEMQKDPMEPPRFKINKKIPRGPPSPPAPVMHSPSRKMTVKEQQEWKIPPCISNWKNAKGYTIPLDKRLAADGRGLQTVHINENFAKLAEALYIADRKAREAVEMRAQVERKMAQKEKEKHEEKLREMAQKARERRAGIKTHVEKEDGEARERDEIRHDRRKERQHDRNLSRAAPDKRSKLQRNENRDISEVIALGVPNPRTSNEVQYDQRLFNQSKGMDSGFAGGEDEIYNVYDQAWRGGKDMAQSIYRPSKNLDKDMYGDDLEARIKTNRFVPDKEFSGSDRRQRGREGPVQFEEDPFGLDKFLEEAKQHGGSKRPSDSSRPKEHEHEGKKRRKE", "assay": "Immunoprecipitation analysis of HDART-Skip interaction in 293 cells", "assay_type": "binding", "design": "expressed in transfected cells; host or cells: HEK293 cells", "procedure": "The interaction between HDART and Skip inside the mammalian cells was confirmed according to the immunoprecipitation analysis. For the confirmation, the Flag-Skip expression vector expressing the Flag-Skip fused protein and the GFP-HDART expression protein expressing the GFP-HDART fused protein (FIG. 4A) were transfected into HEK293 cells by use of Effectene kit (QIAGEN™). It will be noted that a control experiment was conducted such that the Flag-Skip expression vector alone and the GFP-HDART expression vector were, respectively, transfected into cells of the same type under the same conditions.\n24 hours after the transfection, the cells were lysed on ice for 30 minutes in a Nonidet P-40 buffer solution (50 mM Tris HCl (pH 7.6), 150 mM NaCl, 5 mM EDTA, 0.5% Nonidet P-40 and 1 mM PMSF) containing 100 μl of a protease inhibitory substance cocktail (Sigma #p8340) to prepare a cell extract (1 mg). This extract was incubated for 30 minutes at 4° C. along with 40 μl of protein A/G sepharose beads for preliminary clarification. Next, the thus clarified supernatant extract was further incubated for 1 hour along with an anti-Flag antibody or a negative control mouse IgG antibody (2 μg), followed by precipitation for 30 minutes by use of 40 μl of protein A/G sepharose beads. […]\nFurther, the interaction of endogenous HDART and externally introduced Skip was analyzed. […]"}}}
{"molecule": "B1", "values": [{"measurement": "promoter activity", "setting": "[1]; Gal4 DBD-HDART plasmid 0, 0.1, 0.3, 0.5 μg, NIH-3T3 cells", "value": "significantly inhibits"}, {"measurement": "lowering of the expression of luciferase", "setting": "[1]; Gal4 DBD-HDART plasmid, highest concentration 0.5 μg, NIH-3T3 cells, 24 hours after transfection, vacant vector = 100%", "value": 80, "unit": "%"}, {"measurement": "expression inhibition of luciferase", "setting": "[1]; HDART not having a GAL4 DNA binding region", "value": "not observed"}, {"measurement": "interaction with HDAC3", "setting": "HDAC3", "value": "exhibits interaction"}, {"measurement": "co-precipitation of endogenous HDART with Flag-Skip", "setting": "Skip; 293 cells, anti-Flag antibody", "value": "co-precipitated"}, {"measurement": "interaction of foreign HDART (GFP-HDART) with Flag-Skip", "setting": "Skip; co-expression in 293 cells, immunoprecipitation with anti-Flag antibody", "value": "specifically interact"}]}
